How the values were obtained:
HIF-1α/Arnt complex = target: T1, HIF-1α/Arnt complex (Homo sapiens, UniProt Q16665); experiment: pT81/HRE-Luc reporter assay with HIF-1α, Arnt and coactivators (CBP, TIF2, SRC-1); type: cell-based
T1 construct: expression plasmid for full-length HIF-1α (pCMV-HIF-1α); expressed in transfected cells
Method: FIG. 8 The transcriptional coactivator TIF2 enhances the HIF-1α-mediated transactivation function and interacts with HIF-1α in vivo. COS7 cells were transiently cotransfected as described in Materials and Methods with 0.5 μg pT81/HRE-Luc reporter construct, hHIF1-α expression vector (pCMV4/HIF-1α, 0.2 μg), Arnt expression vector (pCMV4/Arnt, 0.2 μg) and 0.75-1.5 μg of either TIF2 (pSG5/TIF2) or CBP (Rc/RSV-CBP-HA), as indicated. The total amount of DNA was kept constant by the addition of parental pCMV4 when appropriate. Following transfection cells were incubated either under normoxic (21% O2) or hypoxic conditions (1% O2). Luciferase activities were normalized for transfection efficiency by cotransfection of alkaline phosphatase expressing pRSV-AF. Data are presented as luciferase activity relative to cells transfected with pCMV4 and reporter gene only and incubated at normoxia. Values represent the mean ±S.E. of two independent experiments.
(§1) FIG. 9 The transcriptional coactivator SRC-1 stimulates HIF-1α activity in a hypoxia-dependent manner and interacts in vitro with HIF-1α. (A) COS7 and (B) human embryonic kidney 293 cells were cotransfected with pT81/HRE-Luc (0.5 μg), 0.2 μg of pCMV4/HIF-1α (hHIF1-α), 0.2 μg of pCMV4/Arnt (Arnt), and 0.75-1.5 μg of SRC-1 (pSG5/SRC-1), as indicated. Six h after transfection cells were exposed to either 21 or 1% O2 for 36 h before harvest. Luciferase values are presented as relative luciferase activity as described in the legend to FIG. 1. The results of three independent experiments performed in duplicate ±S.E. are shown. (C) SRC-1 PAS domain is not required for functional interaction with HIF-1α. (Top) Schematic representation of full-length SRC-1 and SRC-1ΔPAS. (Bottom) pGAL4/HIF 71-826 was cotransfected into COS7 cells together with a reporter plasmid expressing the luciferase gene driven by the thymidine kinase minimal promoter under the control of five copies of GAL4-binding sites, and 1.5 μg of either full-length SRC-1 or a deletion mutant of SRC-1, SRC-1ΔPAS, lacking the PAS domain. Cells were exposed to 21 or 1% O2 for 36 h before harvest and reporter gene assays. Luciferase values are presented as relative luciferase activity as described in the legend to FIG. 1. The results of two independent experiments performed in duplicate +S.E. are shown. (D) In vitro interaction between SRC-1 and HIF-1α. COS7 cells were transfected with 10 μg of the expression plasmid pGST-HIF-1α (GST-HIF) or empty GST expression vector (GST). Cells were exposed to either 100 μM CoCl2 or vehicle (H2O) for 24 h. […] The eluted material was analyzed on 5% SDS-PAGE and visualized by fluorography. ⅕×Input represents one-fifth of the amount of [^35S]methionine-labeled SRC-1 used in the binding reactions. […]

[1] = test system: hypoxia responsive reporter gene (HRE-luc); experiment: Cotransfection of GFP-HIF-1α fusion constructs with hypoxia responsive reporter gene (HRE-luc); type: cell-based, simian; settings: 1% O2 vs normoxia, no CBP
Source text: We next examined the ability of GFP-HIF-1α fusion proteins in functional cotransfection assays where GFP-HIF-1α expression vectors were introduced into COS7 cells together with a hypoxia-responsive gene reporter construct carrying three tandem copies of the erythropoietin hypoxia responsive element (HRE) in front of the Herpes simplex thymidine kinase promoter and the luciferase gene. […] This reporter gene activity was further stimulated about 4-fold by hypoxia (FIG. 6A). In control experiments, transient expression of wild-type HIF-1α also yielded a similar pattern of reporter gene activation, albeit with a slightly lower potency generating about a 2-fold activation response upon exposure to hypoxia. […] In fact, stabilization of the fusion protein (FIG. 2C) by the GFP moiety may rather have enhanced the potency of the activation response produced by HIF-1α.
Transcriptional activity of GFP and GAL4 fusion constructs was analyzed in a cotransfection assay where effector plasmids (0.2 μg/30-mm dish) together with a reporter gene (1.5 μg/30-mm dish) were introduced into COS7 or HeLa cells. The reporter plasmid encoded firefly luciferase gene under the control of thymidine kinase minimal promoter and either five or three copies of GAL4 or HIF-responsive elements, respectively.

GST-HIF-1α = target: T2, GST-HIF-1α (Homo sapiens, UniProt Q16665); experiment: GST precipitation assay of in vitro translated [35S]labeled SRC-1 with GST-HIF-1α; type: binding
T2 construct: expressed in transfected cells; host or cells: COS7 cells, treated with 100 μM CoCl2 or vehicle; whole cell extract used
Method: as §1, with “assays.” for “assays. Luciferase values are presented as relative luciferase activity as described in the legend to FIG. 1. The results of two independent experiments performed in duplicate +S.E. are shown. (D) In vitro interaction between SRC-1 and HIF-1α. COS7 cells were transfected with 10 μg of the expression plasmid pGST-HIF-1α (GST-HIF) or empty GST expression vector (GST). Cells were exposed to either 100 μM CoCl2 or vehicle (H2O) for 24 h.”

[2] = test system: GAL4 responsive reporter plasmid; experiment: Cotransfection of GAL4-HIF-1α fusion proteins with GAL4 responsive luciferase reporter; type: cell-based, simian
Source text: To analyze functional activities of HIF-1α independently of the endogenous DNA binding and dimerization domains and the Arnt partner, we next fused HIF-1α to the heterologous DNA binding domain of GAL4. Functional activity of the fusion protein was monitored in COS7 cells by a cotransfection assay using a reporter gene construct carrying five GAL4 DNA binding elements in front of thymidine kinase promoter and the luciferase gene. Six hours after transfection media was changed, and cells were either left uninduced or exposed to 1% oxygen for 30 h prior to harvest. In the presence of either empty expression vector or a vector expressing the minimal GAL4 DNA binding domain, reporter gene activity was unaltered by reduced oxygen levels. […] The GAL4 DNA binding domain is known to harbor an NLS motif capable of taking fusion proteins to the nucleus (Ma and Ptashne (1987) Cell 51, 113-119). We therefore used antibodies directed against the DNA binding domain of GAL4 to examine in both normoxic and hypoxic cells the intracellular localization of the GAL4-HIF-1α fusion protein by immunofluorescence.
Transcriptional activity of GFP and GAL4 fusion constructs was analyzed in a cotransfection assay where effector plasmids (0.2 μg/30-mm dish) together with a reporter gene (1.5 μg/30-mm dish) were introduced into COS7 or HeLa cells. […]

GST/Ref-1 = GST/Ref-1 (Homo sapiens, UniProt P27695); experiment: Pull-down of [35S]methionine-labeled GAL4/HIF proteins with GST/Ref-1; type: binding; settings: presence or absence of diamide
Method: The precise mechanism by which Ref-1 activates HIF-1α is not known. […] To further investigate whether Ref-1 could interact with HIF-1α, we tried to trap the interaction by using a crosslinking reagent such as diamide, which oxidizes cysteine sulfhydryls to disulfides. A series of experiments was performed with GST-tagged purified Ref-1. [^35S]methionine-labeled in vitro translated GAL4/HIF 1-826 was incubated with GST/Ref-1 in the presence or absence of diamide.
Next, we tried a series of pull-down experiments with [^35S]methionine-labeled in vitro translated GAL4/HIF […] and GAL4/HIF 531-584. […] An interaction between GAL4/HIF […] and GST/Ref-1 was also detected, and this interaction was enhanced in the presence of diamide. In excellent agreement with this observation the C-TAD contains two cysteine residues. […] Immunoblot analysis verified that the input concentrations of GST/Ref-1 or GST alone were similar.

COS7 cells = experiment: Subcellular distribution of GFP-HIF-1α chimeras in living cells (fluorescence microscopy, cell counting); type: cell-based, simian

T1 sequence (Q16665 whole entry): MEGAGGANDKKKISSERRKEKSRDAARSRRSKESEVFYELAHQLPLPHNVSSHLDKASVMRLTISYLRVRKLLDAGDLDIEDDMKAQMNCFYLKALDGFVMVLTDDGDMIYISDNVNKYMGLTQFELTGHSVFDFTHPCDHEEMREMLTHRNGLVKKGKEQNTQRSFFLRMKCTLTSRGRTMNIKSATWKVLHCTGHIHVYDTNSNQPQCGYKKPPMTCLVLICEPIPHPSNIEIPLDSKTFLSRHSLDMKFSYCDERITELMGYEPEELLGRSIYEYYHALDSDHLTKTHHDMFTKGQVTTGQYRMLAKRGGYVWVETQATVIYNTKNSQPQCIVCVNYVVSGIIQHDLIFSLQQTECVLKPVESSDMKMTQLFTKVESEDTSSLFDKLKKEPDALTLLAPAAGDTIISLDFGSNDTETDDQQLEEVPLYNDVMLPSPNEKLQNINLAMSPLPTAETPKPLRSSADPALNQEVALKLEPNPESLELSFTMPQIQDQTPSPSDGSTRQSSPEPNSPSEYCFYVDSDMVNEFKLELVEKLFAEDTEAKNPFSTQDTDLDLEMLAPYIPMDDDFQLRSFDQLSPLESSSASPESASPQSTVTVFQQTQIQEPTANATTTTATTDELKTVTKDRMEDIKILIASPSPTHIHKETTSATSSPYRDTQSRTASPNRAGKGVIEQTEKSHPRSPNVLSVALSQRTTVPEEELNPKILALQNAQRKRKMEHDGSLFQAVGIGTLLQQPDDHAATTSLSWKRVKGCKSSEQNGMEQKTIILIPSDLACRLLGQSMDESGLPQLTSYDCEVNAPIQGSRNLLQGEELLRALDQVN
T1 sequence (P27540 whole entry partner): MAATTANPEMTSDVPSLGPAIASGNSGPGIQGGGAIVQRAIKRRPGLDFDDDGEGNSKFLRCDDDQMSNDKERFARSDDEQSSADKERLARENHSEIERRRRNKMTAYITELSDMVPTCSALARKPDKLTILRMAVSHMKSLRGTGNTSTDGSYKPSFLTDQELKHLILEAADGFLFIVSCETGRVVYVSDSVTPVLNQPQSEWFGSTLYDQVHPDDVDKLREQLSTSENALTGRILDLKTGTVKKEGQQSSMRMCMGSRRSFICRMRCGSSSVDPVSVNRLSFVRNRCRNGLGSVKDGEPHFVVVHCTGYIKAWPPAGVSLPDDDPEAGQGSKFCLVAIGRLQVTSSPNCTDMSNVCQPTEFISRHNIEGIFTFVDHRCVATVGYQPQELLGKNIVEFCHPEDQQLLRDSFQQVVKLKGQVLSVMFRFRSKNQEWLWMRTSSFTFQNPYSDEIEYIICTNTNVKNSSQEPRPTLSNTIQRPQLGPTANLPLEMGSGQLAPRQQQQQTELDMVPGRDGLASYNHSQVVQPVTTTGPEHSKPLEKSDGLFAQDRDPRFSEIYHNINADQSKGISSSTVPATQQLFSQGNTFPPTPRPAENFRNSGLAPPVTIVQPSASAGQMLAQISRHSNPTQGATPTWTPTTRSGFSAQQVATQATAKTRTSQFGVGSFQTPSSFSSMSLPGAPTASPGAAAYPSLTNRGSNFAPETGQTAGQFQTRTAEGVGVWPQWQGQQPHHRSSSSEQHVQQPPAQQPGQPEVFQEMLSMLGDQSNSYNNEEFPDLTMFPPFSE
T2 sequence (Q16665 whole entry): as the sequence (Q16665 whole entry) above
Sequence of GST/Ref-1 (P27695 whole entry, species assumed, the tested form may be a part): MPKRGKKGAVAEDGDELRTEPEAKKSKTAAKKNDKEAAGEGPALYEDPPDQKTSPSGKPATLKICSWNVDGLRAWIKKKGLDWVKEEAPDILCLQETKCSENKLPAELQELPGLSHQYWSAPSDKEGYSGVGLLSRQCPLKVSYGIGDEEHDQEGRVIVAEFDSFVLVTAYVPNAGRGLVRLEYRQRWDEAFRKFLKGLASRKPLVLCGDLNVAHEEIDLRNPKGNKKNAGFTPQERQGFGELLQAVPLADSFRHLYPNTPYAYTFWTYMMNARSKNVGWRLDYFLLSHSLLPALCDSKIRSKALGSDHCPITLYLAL

Molecule: HIF-1α: transiently expressed wild-type human hypoxia-inducible factor-1α
- increase of reporter gene activity by hypoxia (HIF-1α/Arnt complex; coexpression of HIF-1α and Arnt, 1% O2): ~1.5 fold
- stimulation of pT81/HRE-luc reporter gene activity (HIF-1α/Arnt complex; coexpression of HIF-1α and Arnt, normoxic conditions): around 10 fold
- stimulation of HRE reporter gene activity by hypoxia compared to normoxia [1]: about 2 fold

Molecule: SRC-1: p160 family transcriptional coactivator
- enhancement of transcriptional activity of HIF-1α (HIF-1α/Arnt complex; normoxic conditions, COS7): around 3 fold
- binding to GST-HIF-1α (in words) (GST-HIF-1α; extract of cells treated with 100 μM CoCl2): specifically retained
- binding to GST-HIF-1α (in words) (GST-HIF-1α; extract of non-treated cells): no significant binding

Molecule: TIF2: p160 family transcriptional coactivator
- activation of the reporter gene over the levels observed at normoxia (HIF-1α/Arnt complex; coexpression with HIF-1α, COS7): around 12 fold

Molecule: GAL4-HIF-1α: full length HIF-1α fused to the GAL4 DNA binding domain
- hypoxia-dependent activation of GAL4 reporter gene activity ([2]; 1% O2 vs normoxia, no exogenous coactivator): about 2 fold
- stimulation of GAL4 reporter activity by coexpressed CBP ([2]; hypoxic conditions, vs hypoxia without exogenous coactivator): 19 fold
- binding to GST/Ref-1 (in words) (GST/Ref-1): weakly bind GST/Ref-1

Molecule: [Cl-].[Cl-].[Co+2] [CoCl2]
- effect on nuclear import of GFP-HIF-1α (COS7 cells): induced nuclear import of GFP-HIF-1α
